Results taken from USRE46585 (LABORATOIRE FRANCAIS DU FRACTIONNEMENT ET DES …, dated 2017).

Assays:
FcRn-p3 fusion protein [1] = target: T1, FcRn-p3 fusion protein (human, UniProt P55899 24-297; P61769 21-119); experiment: phage ELISA pH6
T1 construct: baculovirus expressed; coated on ELISA wells; not shown: amino terminal part of bacteriophage p3 protein and CVDE protein

FcRn-p3 fusion protein [2] = target: T1, FcRn-p3 fusion protein; experiment: phage ELISA pH6 (est.)

| Binder | Ratio/Fc-H (FcRn-p3 fusion protein [1]) | Ratio/FWT (FcRn-p3 fusion protein [2]) |
| --- | --- | --- |
| T6A_13 (other, EU numbering) CPPCTAPELLGGPSVFLFPPKPKDTLMISRTPEVTCVVVDVSHEDPEVKFNWYVDGVEVHNAKTKPREEQYNSTYRVVSVLTVLHQDWLDGKEYKCKVSNKALPVPIEKTISKAKGQPREPQVYTLPPSRDELTKNRVSLTCLVKGFYPSDIAVEWESNGQPENNYKTTPPVLDSDGSFFLYSKLTVDKSRWQQGNVFSCSVMHEALHYHYTQKSLSLSPGK | 2.9 fold | 9.3 fold |
| T6A_47 (other, EU numbering) CPPCTAPELLGGPSVFLFPPKPKDTLMISRTPEVTCVVVDVSHEDPEVKFNWYVDGVEVHNAKTKPREEQYNSTYRVVSVLTVLHQDWLNGKEYTCKVSNKALPAPIEKTISKAKGQPREPQVYTLPPSRDELTKNQVSLTCLVKGFYPSDIAVEWESNGQPENNYKTTPPVLDSDGSFFLYSKLTVDKSRWQQGNVFSCSVMHEALHYHYTQKSLSLSPGK | 2.8 fold | 9.1 fold |
| T6A_40 (other, EU numbering) CPPCAAPELLGGPSVLLFPPKPKDTLMISRTPEVTCVVEDVSHEDPEVKFNWYVDGVEVHNAKTKPREEQYNSTYRVVSVLTVLHQDWLNGKEYKCKVSNKALPAPIEKTISKAKGQPREPQVYTLPPSRDELTKNQVSLTCLVKGFYPSDIVVEWESNGQPENNYKTTPPVLDSDGSFFLYSKLTVDKSRWQQGTVFSCSVMHEALHNHYTQKSLSLSPGK | 2.8 fold | 9.1 fold |

Results, then the binder that gave them:

| Ratio/Fc-H (FcRn-p3 fusion protein [1]) | Ratio/FWT (FcRn-p3 fusion protein [2]) | Binder |
| --- | --- | --- |
| 2.8 fold | 8.9 fold | T7A_18 (other, EU numbering) CPPCPAPELLGGPSVFLFPPKPKDTLMISRTPEVTCVVEDVSHEDPEVKFNWYVDGVEVHNAKTKPREEQYNSTYRVVSVLTVLHQDWLNGKEYKCKVSNKALPAPIEKTISKAKGQPREPQVYTLPPSRDELTKNQVSLTCLVKGFYPSDIVVEWESNGRPENNYKTTPPVLDSDGSFFLYSKLTVDKSRWQQGNVFSCSVMHEALHSHYTQKSLSLSPGK |
| 2 fold | 6.3 fold | T7A_17 (other, EU numbering) CPPCPAPELLGGPSVFLFPPKPKDTLMISRTPEVTCVVEDVSHEDPEVKFNWYVDGVEVHNAKTKSREEQYNSTYRVVSVLTVLHQDWLNGKEYKCKVSNKALPAPIEKTISKAKGQPREPQVYTLPPSRDELTKNRVSLTCLVKGFYPSDIVVEWESNGQPENNYKTTPPVLDSDGSFFLYSKLTVDKSRWQQGNVFSCSVMHEALHYHYTQKSLSLSPGK |
| 1.1 fold | 3.5 fold | T6A_93 (other, EU numbering) CPPCPAPELLGGPSVFLFPPKPKDTLMISRTPEVTCVVVDVSHEDPEVKFNWYVDGVEVHNAKTKPREEQYNSKYRVVSVLTVLHRDWLDGKEYKCKVSNKALPAPIEKTISKAKGQPREPQVYTLPPSRDELTKNQVSLTCLVKGFYPSDIAVEWESNGQPENNYKTTPPVLDSDGSFFLYSKLTVDKSRWQQGNVFSCSVMHEALHYHYTQKSLSLSPGK |
| 1.7 fold | 5.4 fold | T7A_35 (other, EU numbering) CPPCPAPELLGGPSVFLFPPKPKDTLMISRTPEVTCVVVDVSHEDPEVKFNWYVDGVEVHNAKTKPREEQYNSTYRVVSVLTVLHQDWLDGKEYKCKVSNKALPAPIEKTISKAKGQPREPQVYTLPPSRDELTKNRVSLTCLVKGFYPSDIAVEWESNGQPENNYKTTPPVLDSDGSFFLYSKLTVDKSRWQQGNVFSCSVMHEALHYHYTQKSLSLPPGK |
| 2.3 fold | 7.2 fold | T7A_24 (other, EU numbering) CPPCPAPELLGGPSVFLFPPKPKDTLMISRTPEVTCVVEDVSHEDPEVKFNWYVDGVEVHNAKTKPREEQYNSTYRVVSVLTVLHQDWLNGKEYKCKVSNKALPAPIEKTISKAKGQPREPQVYTLPPSRDELTKNQVSLTCLVKGFYPSDIVVEWESNGQPENNYKTTPPVLDSDGSFFLYSKLTVDKSRWQQGTVFSCSVMHEALHYHYTQKSLSLSPGK |
